# The DeepSol protein solubility set
# Test: soluble on expression in E. coli; label from the status in PepcDB or PDB records
row,Sequence,soluble on expression in E. coli
1,MTHTLQATNPLDQTAWHAWHFSRNKEAISRTGATSLSATEWISATTLKDAHTFPSLPGRWYKRGGGVVGAHLPPAFATTGTVQLRPGELLIAEDFTLTVIERLGQFALQVFDARNPKRFEFHSIAAFPPSEEWRIEARFFPEPDTVNTAAADGVIVATPTAGWVHFLKGRLDYRLRVTVQKNNLRALFSDNSSTLGVYQHRFVDIPRPDAEGNTIIDFNRAYLPPKALNRKFLCPSPSLNNHLNLTVEAGEKWVVAGGLEHHHHHH,soluble
2,MSLRITTLEELLEALDELFDDGSDLTRRGAQDPWERVFSQPGHPLASDLPDACLVDWTRQGLLPSGDGLTALDLGCGLGRNARWLARQGYAVTGLDLSPYAVGQARERTPGPDIRYLEGDVLRDPIPGGPFDVVYDSGCFHHLPPHRRLSYLHTLGQVLRPGGWFGLCTFAWGRMGSAKSDLELLRQGQLEGGVGYTLDDLREMFGGLDFVTGSLLSELEPASEPVFQMDFLQAALFRREGHHHHHH,soluble
3,MAHHHHHHMQLKERLQQWRERGLQGADVDPPVQRPRSFRPSCIVPRLYLGAAKDVQDVRTLRSRLLPDKLLMVVSTCDPSDPPRMELRQIAPTKGTAYTVKRLAVCSWEELEKRVVTSSFCCRLPRNEVMVATAEWLKEVLKTKSLPPVSLEECRDVQKGETDGKVSEVFEEGLYLKLCLPWKDESNFTVRPYFAVATALIHATMDGIQGAVVCYCMAGKSRSATLTCALLLYCCYDNVGRPKDEEECSAYKAVQAVVEFVREVRLCVSPNEGFIEQLRDYASDLLAV,not soluble
4,MHPIETPDKTFHDGDGVSELGTILPAWWLNQVQSELLAVLTAAGIQPDKSQPNQLLAALNRLAVVITGDQTVNGQKTFTAQTQFQSGIHLSANQTNWNGGHKAYIGADADNAHIVFGDDTLRLHGANNRISYNNHDIFHKANKPRFAEDIQGKPNTLSGYGIGNFKVETFRGDLNTLKTDGIYSLPTAVGSSNLPVENTACHIQVIAGTKHGWCRQLGYPAYTSDVYERHQTSSANDNWSAWKKLNSDGIPVGAIVSFPKAVQNPAGYLKANGTTFAQNTFPDLYRALGNSNRLPDLSRTDIGITAWFPSDQIPTGWLAFDDIRTRVTETAYPELYRLLTGKYGSIQNVPQAEDRFIRNAGNSLAVGTKQEDEIKRHVHKVFSHWTNHTDAAALGYEDRNERQRSALVSTWTDENLNDNGFLTPRSDSKMATGGDENRPKALVLKLCIKAADTLGEAVFWIKSHGETINAGALDAGTLAQGLQDKADRDHTHTAAQIQGLDEKISTAVAAQFTRQTIGGVDIVRFPDGTMIQTGSYRFTRSGGPIENEVVFPVAFADGNVKCFVSERHSERVTGDRRQHNWLFIRAKNHAAAIITNWYEGSCDWMAIGKAASGNAASSPIGPEIPETNEEPQRESGRTSTGPRNRRRRDGLLEALQD,not soluble
5,MSEKSIVTKILRYLKTVPGCFCWKEHGGMYGTAGLPDIIACVNGRFIAFEVKTPSGKTTKLQEATIKKILNAGGVAAVVHSVDEVKVILEKHDLLQRTKI,soluble
6,RCIKLYRARKGNAAVKRHMRDTLSLNDAVEKVRAVDAPLSKLAQEALQSYRNYRRNEASELAQALPLNEYLVIQIRNSMAQIMRRFD,not soluble
7,MSFTTISVIGLGYIGLPTAAAFASRQKQVIGVDINQHAVDIINRGEIHIVEPALGNVVKMAVEGGFLRATTTPVEADAYLIAVPTPFKGDHDPDMAYVEAAAKSIAPVLKKGALVILESTSPVGATEQMAGWLAGMRTDLTFPQQAGEQADVNIAYCPERVLPGQVMVELIKNDRVIGGMTPVCSARASALYKIFLEGECVVTNSRTAEMCKLTENSFRDVNIAFANELSLICAEQGINVWELIRLANRHPRVNILQPGPGVGGHCIAVDPWFIVAQNPQQARLIRTAREVNDGKPHWVVDQVKAAVTDCLAATDKRASEVKIACFGLAFKPNIDDLRESPAMGIAQSIARWHSGETLVVEPNIRQLPKKLDGLCTLAKLDAALAAADVLVMLVDHDEFKAIPGDAVHQRYVVDTKGVWR,soluble
8,MSLAVVASAVAGCGQVRVGQVEPAPGSPTRAQVEDMLGRVRVVAERGRPGGYDRDCGRGGGCVFGPAWTDDHGGAEGHNGCDTRNDVLAAQLSDVRYREGTRDCVVVAGTLRDPYTGRLLEFRKADARDVQIDHVYPLAAAWDLGAAGWSPEQRVRFANDTVTNLMATAGAVNQAKGDATPAEWMPPARANHCFYAGKYLTVAVRYDLPVTAADNAVLHAIARTCPEGHHHHHH,soluble
9,MYLPDDSPAKRLLFQMVGNAINRNTQQLTQDLRAMPNWSLRFVYIVDRNNQDLLKRPLPPGIMVLAPRLTAKHPYDKVQDRNRKLYGRHITLNDGNSVKVVTISAGRDEGPDRDIIWEMFLENLEHHHHHH,soluble
10,GAMGDDSMRMSHLKVGSAADIPINISETDLSLLTATVVPPSGREEPCLLKRLRNGHVGISFVPKETGEHLVHVKKNGQHVASSPIPVVISQSEIGDASRVRVSGQGLHEGHTFEPAEFIIDTRDAGYGGLSLSIEGPSKVDINTEDLEDGTCRVTYCPTEPGNYIINIKFADQHVPGSPFSVKVTGEGRVK,soluble
11,MAHHHHHHMHTFYTIRYPPPNSQKGGEDSQPIRVTNKAMESLLFCIVHSIEFQSPLQPSRPQLGSSIGSSGKDSITDDEAYVRPVENSSMLLGNVTYVSRSKHKPSVLASLHTAVEAARAIQIPEKSSQVPFELRVRLLRRHRGWLWHDSRPLVEWVFRMAKTREEFSFSTTHGDASERPRPRTSPRATNAHANVVRATGGGGVHSRSREDGLVCSNDPEQIRQVLQFILKHSYDAIDLNTYADFRSGELIFDVSVQEV,not soluble
12,MYRRLASGLYQTSQRRIAQVQPKSVFVPETIVTTLPNGFRVATENTGGSTATIGVFIDAGSRYENEKNNGTAHFLEHMAFKGTPRRTRMGLELEVENIGAHLNAYTSRESTTYYAKCFTEKLDQSVDILSDILLNSSLATKDIEAERGVIIREMEEVAQNFQEVVFDILHADVFKGNPLSYTILGPIELIQTINKNDLQGYINTHYRSGRMVLAAAGGVNHDAIVKMAEKYFGELKHGDSSTEFVPATYSPCEVRGDIPDLPMLYGAMVVEGVSWTHEDNLALMVANTLMGEYDRMRGFGVNAPTRLAEKLSQDAGIEVFQSFNTCYKETGLVGTYFVAAPESIDNLIDSVLQQWVWLANNIDEAAVDRAKRSLHTNLLLMLDGSTPVCEDIGRQLLCYGRRIPTPELHARIESITVQQLRDVCRRVFLEGQVSAAVVGKTQYWPVNEEIHGRLIRMQ,not soluble
13,MSLSPAGGPDLAALAASSTSIDLPYLLAGVENENELDLYVVPSGKPVAVRAATFDSERQVYSLALDNPQRILTWTPASAPGGDEGNSTSLPLVPPGTVVYTGSSLNPVVTEQEGYPALDLLDQERLIITFPMDSGLPPILVVFKSPRYEAGTSTGHGLEHHHHHH,soluble
14,MSLLKINSQLFAIEDTLDDLAAAFLNLEVVRTYKAAQKAFLADKHLQKEISNFQHYNEDYNDQKTFIKYRPEVKQLRRKIFEKKRQLDLNEKVIALRRAEVDLQEVLAKIAQKIAESVSSDVFVDTGLPLAPHKPPHKKGYGNNIKEREGHHHHHH,soluble
15,MAHHHHHHMKGLHIRPMNDSRLCERIKVLDDYCFPVKYTESYYNDYVRNSFHEFNQLAFYHDILVGSITCRLEKTATDGEHVLYIMTIGVLEAYRHLRIGSRLLQTVLSAVHNDTRNRIVAVTLHVQVGSPALKLYRQFNFEEVQLVENYYTDLDECNAILLRRVVPQPHFEHHKKFK,not soluble
16,MGHPRSIRSFVLRQSHMTAAQQRAIDTLWDSFGIDYQATPADLDARFGSSRPKILEIGFGMGTATAEIARRLPETDFLAIDVHGPGVGNLLKLIDENHLENIRVMRHDAVEVVENMLQDGSLDGIHIFFPDPWHKKRHHKRRLIQAPFIAKLLPKLKTGGYIHLATDWEEYAQQMLEVLSSFDSLQNTAADYAPTPDYRPETKFEARGKRLGHGVWDLVFKRIGLEHHHHHH,soluble
17,MMKLKVYADRMSQPSRAVIIFCKVNGIQFDEVLISLAKRQQLSPEFKDINPLGKVPAIVDGRLKLFESHAILIYLSSAFPSVADHWYPNDLSKRAKIHSVLDWHHTNLRRGAAGYVLNSVLGPALGLPLNPKAAAEAEQLLTKSLSTLETFWLKGNAKFLLGSNQPSIADLSLVCELMQLQVLDDKDRLRLLSTHKKVEQWIENTKKATMPHFDETHEILFKVKEGFQKRREMGTLSKPGLQSKI,soluble
